Assay results: patent US20220267469A1 (LIPUM, published 2022)
Substitutions are numbered along the chain they refer to. In names and notes the source's numbering stands.

T1: Human BSSL (bile salt-stimulated lipase), native (human, UniProt P19835 21-753)
T1 construct: Native full-length protein purified from human milk (Astra Hässle AB); also called hBSSL; non-biotinylated human BSSL
T1 sequence: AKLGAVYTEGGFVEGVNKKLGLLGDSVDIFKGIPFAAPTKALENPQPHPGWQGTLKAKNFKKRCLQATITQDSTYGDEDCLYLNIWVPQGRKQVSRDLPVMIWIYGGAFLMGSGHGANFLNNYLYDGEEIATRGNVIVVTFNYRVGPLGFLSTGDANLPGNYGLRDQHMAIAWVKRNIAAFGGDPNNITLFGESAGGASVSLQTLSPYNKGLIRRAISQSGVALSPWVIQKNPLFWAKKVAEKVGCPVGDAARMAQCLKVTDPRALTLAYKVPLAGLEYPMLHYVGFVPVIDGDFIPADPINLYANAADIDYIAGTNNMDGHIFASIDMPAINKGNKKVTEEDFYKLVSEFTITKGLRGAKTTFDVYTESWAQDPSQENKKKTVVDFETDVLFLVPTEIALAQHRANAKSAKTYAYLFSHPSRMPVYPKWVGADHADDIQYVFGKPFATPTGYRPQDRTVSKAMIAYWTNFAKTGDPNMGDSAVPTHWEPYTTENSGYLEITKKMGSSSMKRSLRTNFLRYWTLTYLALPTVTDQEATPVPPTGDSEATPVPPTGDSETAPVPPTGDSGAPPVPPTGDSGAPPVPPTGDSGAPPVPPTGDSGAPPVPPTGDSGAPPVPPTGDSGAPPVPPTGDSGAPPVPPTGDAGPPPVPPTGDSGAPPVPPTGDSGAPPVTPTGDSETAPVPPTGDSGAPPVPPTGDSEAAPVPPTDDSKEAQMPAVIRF

T2: Biotinylated human BSSL (human, UniProt P19835 21-753, Biotinylated on glycosacarides, 30-40 biotin/BSSL)
T2 construct: hBSSL biotinylated in house; also called b-hBSSL; human BSSL-biotin
T2 sequence: T1 sequence

T3: Mouse BSSL, recombinant (mouse, UniProt Q64285 21-599)
T3 construct: Bought (R&D Systems, Cat. no 5658-CE); also called mBSSL; murine BSSL
T3 sequence: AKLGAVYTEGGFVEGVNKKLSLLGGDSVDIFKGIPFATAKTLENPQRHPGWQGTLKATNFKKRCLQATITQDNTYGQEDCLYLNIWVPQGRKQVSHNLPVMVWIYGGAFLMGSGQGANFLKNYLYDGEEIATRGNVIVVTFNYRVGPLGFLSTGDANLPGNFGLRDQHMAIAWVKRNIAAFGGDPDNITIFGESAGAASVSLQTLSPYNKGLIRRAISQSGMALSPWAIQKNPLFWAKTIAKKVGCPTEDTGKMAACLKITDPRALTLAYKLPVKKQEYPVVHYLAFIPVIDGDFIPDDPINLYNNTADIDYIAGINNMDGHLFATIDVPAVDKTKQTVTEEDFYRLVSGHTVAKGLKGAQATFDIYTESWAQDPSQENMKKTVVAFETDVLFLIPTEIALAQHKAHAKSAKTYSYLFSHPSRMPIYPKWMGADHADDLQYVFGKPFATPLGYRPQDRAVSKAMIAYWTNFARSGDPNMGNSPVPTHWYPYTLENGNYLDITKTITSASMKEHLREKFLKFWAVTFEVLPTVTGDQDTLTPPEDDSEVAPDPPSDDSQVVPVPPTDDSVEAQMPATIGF

B1: S-SL048-14 hIgG4 S228P (antibody, V domains shown)
VH: QVQLVQSGAEVKKPGASVKVSCKASGYTFTSYNMHWVRQAPGQGLEWMGVINPGDGATSYAQKFKGRVTMTRDTSTSTVYMELSSLRSEDTAVYYCARDYYGSSPLGYWGQGTLVTVSS
VL: DIQMTQSPSSLSASVGDRVTITCRASPSISYLNWYQQKPGKAPKLLIYATSRLPSGVPSRFSGSGSGTDFTLTISSLQPEDFATYYCQQRSSSPTFGQGTKLEIK
notes: Tested as human IgG4 S228P
B2: S-SL048-74 hIgG4 S228P (antibody, V domains shown)
VH: B1 VH with M48I, K65Q
VL: B1 VL with P27Q, T50A, R52S, P54A, Q88H
notes: Tested as human IgG4 S228P
B3: S-SL048-103 hIgG4 S228P (antibody, V domains shown)
VH: B1 VH
VL: B1 VL with P27S, L32M, N33H, R52S, P54A, Q88H
notes: Tested as human IgG4 S228P
B4: S-SL048-125 hIgG4 S228P (antibody, V domains shown)
VH: B1 VH with M48I, K65Q
VL: B1 VL with P27S, N33H, T50A, Q88H, S93Y
notes: Tested as human IgG4 S228P
B5: S-SL048-40 hIgG4 S228P (antibody, V domains shown)
VH: B1 VH with M48I, G54S, K65Q
VL: B1 VL with P27S, T50A
notes: Tested as human IgG4 S228P
B6: S-SL048-109 hIgG4 S228P (antibody, V domains shown)
VH: B1 VH with G54S
VL: B1 VL with P54A
notes: Tested as human IgG4 S228P
B7: S-SL048-131 hIgG4 S228P (antibody, V domains shown)
VH: B1 VH with M48I
VL: B1 VL with T50A, R52K, P54A, Q88H
notes: Tested as human IgG4 S228P
B8: S-SL048-38 hIgG4 S228P (antibody, V domains shown)
VH: B1 VH with K65Q
VL: B1 VL with R52S, P54A
notes: Tested as human IgG4 S228P
B9: S-SL048-66 hIgG4 S228P (antibody, V domains shown)
VH: B1 VH with A61N
VL: B1 VL with R24S, P27Q, L32M, A49D, T50A, R52S, P54A, Q88H, S93T
notes: Tested as human IgG4 S228P
B10: S-SL048-41 hIgG4 S228P (antibody, V domains shown)
VH: B1 VH with M48I, N52Y
VL: B1 VL with P27S, L32M, Q88H
notes: Tested as human IgG4 S228P
B11: S-SL048-48 hIgG4 S228P (antibody, V domains shown)
VH: B1 VH with M48I, K65Q
VL: B1 VL with L32M, P54Q, Q88H
notes: Tested as human IgG4 S228P
B12: S-SL048-65 hIgG4 S228P (antibody, V domains shown)
VH: B1 VH with M48I
VL: B1 VL with R24S, P27Q, A49D, T50A, R52S, Q88H
notes: Tested as human IgG4 S228P

Biological target: T1, Human BSSL (bile salt-stimulated …)
Experiment: SPR single cycle kinetics, hIgG4 S228P captured by anti-Fab
Protocol: (§1) Kinetic parameters of the hIgG4 S228P clones were determined by SPR using BIACORE® T200 (GE Healthcare). Single cycle kinetics was used to measure the affinity of the purified hIgG4 molecules to human and mouse BSSL. An anti-Fab antibody (GE Healthcare, #28958325) was immobilized on a CM5 S sensor chip by primary amine coupling using NHS-EDC chemistry. hIgG4 was captured by the anti-Fab antibody, and subsequently, five different concentrations of hBSSL (1:5 dilutions starting from 50 nM) or mBSSL (1:5 dilutions starting from 500 nM) were injected over the surface. The sensor chip surface was regenerated with 10 mM glycine-HCl pH 2.1. For binding to human BSSL, single cycle kinetic data was fitted to a 1:1 binding model and kinetic parameters were retrieved using software BlAevaluation. For mouse BSSL, a steady state analysis was performed by plotting the response level at equilibrium against each concentration, and KD values were retrieved by the BlAevalution software.

First: B1
Second: B2
The Kd of the first is 5.3-fold lower: 0.9 nM for the first, 4.8 nM for the second.

B3 and B4 are within 1.5-fold of each other in Kd: 1.7 nM for the first, 2.1 nM for the second.

B5 and B6 are within 1.5-fold of each other in Kd: 1 nM for the first, 1.4 nM for the second.

Compared with B7, B8 is 2.7-fold lower in Kd: 2.7 nM for the first, 1 nM for the second. The second binds more tightly here.

Compared with B9, B10 is 6.7-fold lower in Kd: 8 nM for the first, 1.2 nM for the second.

B11 showed a Kd of 0.8 nM.

Biological target: T2, Biotinylated human BSSL
Experiment: flow cytometry displacement assay; 3.0 ug antibody, 1 ug b-hBSSL
Protocol: (§2) The 28 BSSL-specific hIgG4 antibodies and the five reference antibodies at different concentrations (ranging from 0.5 μg to 3.0 μg per reaction; see Table 10) were added to b-hBSSL (1 μg per reaction, see Table 2) in round-bottom polystyrene tubes, lx PBS (pH 7.4) was added to a final volume of 20 μl and the antibody/b-hBSSL mixtures were incubated for 30 min. at +4° C. to facilitate binding of antibodies to BSSL. Buffy coat (50 μl) was then added to each antibody/b-hBSSL mixture and incubation continued for another 30 min at +4° C. Thereafter, 2 ml of FACS lysing solution (BD Biosciences) was added and the cells were incubated for 10 min at room temperature in order to lyse erythrocytes and fix the white blood cells. The cells were then centrifuged for 5 min. at 200×g, the resulting pellets were washed by adding 2 ml of FACS buffer (1×PBS supplemented with 1% FCS and 0.1% NaN3) and centrifuged again. Finally, the supernatants were discarded and the cells were resuspended in the last drop of liquid, approximately 50 μl.
(§3) 5 μl of BV421-labelled anti-human CD14 (BD Biosciences) and 5 μl of BB515-labelled streptavidin (BD Biosciences) was added to each tube and incubated for 30 min, at +4° C., protected from light. Thereafter, cells were washed twice with FACS buffer, resuspended in 500 μl FACS buffer, and run on BD LSRII flow cytometer (BD Biosciences). Finally, data were analyzed using FlowJo software (BD Biosciences).

Compared with B1, B2 is lower in “percentage reduction of b-hBSSL binding to CD14+ monocytes” value (“percentage reduction of b-hBSSL binding” for short): 56% for the first, 52% for the second.

Going from B3 to B4, the “percentage reduction of b-hBSSL binding” value falls from 69% to 33%.

Compared with B5, B6 is lower in “percentage reduction of b-hBSSL binding” value: 53% for the first, 51% for the second.

Compared with B12, B7 is higher in “percentage reduction of b-hBSSL binding” value: 39% for the first, 58% for the second.

B8 and B9 are the same in “percentage reduction of b-hBSSL binding” value: 51% for the first, 51% for the second.

Compared with B10, B11 is lower in “percentage reduction of b-hBSSL binding” value: 72% for the first, 68% for the second.

Biological target: T2, Biotinylated human BSSL
Experiment: flow cytometry displacement assay; 0.5 ug antibody, 1 ug b-hBSSL
Protocol: as §2, §3

First: B1
Second: B3
The “percentage reduction of b-hBSSL binding” value of the first is lower: 11% for the first, 12% for the second.

Compared with B5, B12 is lower in “percentage reduction of b-hBSSL binding” value: 20% for the first, 5% for the second.

Compared with B8, B9 is higher in “percentage reduction of b-hBSSL binding” value: 6% for the first, 12% for the second.

Compared with B10, B11 is higher in “percentage reduction of b-hBSSL binding” value: 12% for the first, 28% for the second.

Biological target: T2, Biotinylated human BSSL
Experiment: flow cytometry displacement assay; 2.0 ug antibody, 1 ug b-hBSSL
Protocol: as §2, §3

First: B12
Second: B9
The “percentage reduction of b-hBSSL binding” value of the first is lower: 35% for the first, 43% for the second.

Going from B10 to B11, the “percentage reduction of b-hBSSL binding” value falls from 71% to 61%.

Biological target: T2, Biotinylated human BSSL
Experiment: flow cytometry displacement assay; 1.5 ug antibody, 1 ug b-hBSSL
Protocol: as §2, §3

First: B1
Second: B2
The “percentage reduction of b-hBSSL binding” value of the first is higher: 48% for the first, 29% for the second.

First: B3
Second: B4
The “percentage reduction of b-hBSSL binding” value of the first is higher: 26% for the first, 9% for the second.

Going from B5 to B6, the “percentage reduction of b-hBSSL binding” value falls from 44% to 38%.

First: B12
Second: B7
The “percentage reduction of b-hBSSL binding” value of the first is lower: 21% for the first, 31% for the second.

First: B8
Second: B9
The “percentage reduction of b-hBSSL binding” value of the first is higher: 52% for the first, 39% for the second.

Compared with B10, B11 is lower in “percentage reduction of b-hBSSL binding” value: 51% for the first, 50% for the second.

Biological target: T2, Biotinylated human BSSL
Experiment: flow cytometry displacement assay; 1.0 ug antibody, 1 ug b-hBSSL
Protocol: as §2, §3

Compared with B1, B3 is lower in “percentage reduction of b-hBSSL binding” value: 32% for the first, -1% for the second.

Compared with B5, B12 is lower in “percentage reduction of b-hBSSL binding” value: 28% for the first, 23% for the second.

First: B8
Second: B9
The “percentage reduction of b-hBSSL binding” value of the first is higher: 44% for the first, 12% for the second.

Compared with B10, B11 is lower in “percentage reduction of b-hBSSL binding” value: 29% for the first, 23% for the second.

Biological target: T3, Mouse BSSL, recombinant
Experiment: SPR steady state, hIgG4 S228P captured by anti-Fab
Protocol: as §1

Going from B1 to B2, the Kd falls from 89 nM to 21 nM (4.2-fold).

Compared with B3, B4 is 1.6-fold lower in Kd: 199 nM for the first, 123 nM for the second.

Going from B5 to B6, the Kd rises from 87 nM to 353 nM (4.1-fold).

First: B12
Second: B7
The Kd of the first is 2.1-fold lower: 30 nM for the first, 63 nM for the second.

B8 and B9 are within 1.5-fold of each other in Kd: 67 nM for the first, 83 nM for the second.

Going from B10 to B11, the Kd falls from 79 nM to 41 nM (1.9-fold). The second binds more tightly here.
